Target: RseP of E. faecalis LMG3358 (membrane-bound Zn-dependent site-2 protease) (E. faecalis) (UniProt Q9RPP2)
Chain of UniProt Q9RPP2 (Q9RPP2 whole entry): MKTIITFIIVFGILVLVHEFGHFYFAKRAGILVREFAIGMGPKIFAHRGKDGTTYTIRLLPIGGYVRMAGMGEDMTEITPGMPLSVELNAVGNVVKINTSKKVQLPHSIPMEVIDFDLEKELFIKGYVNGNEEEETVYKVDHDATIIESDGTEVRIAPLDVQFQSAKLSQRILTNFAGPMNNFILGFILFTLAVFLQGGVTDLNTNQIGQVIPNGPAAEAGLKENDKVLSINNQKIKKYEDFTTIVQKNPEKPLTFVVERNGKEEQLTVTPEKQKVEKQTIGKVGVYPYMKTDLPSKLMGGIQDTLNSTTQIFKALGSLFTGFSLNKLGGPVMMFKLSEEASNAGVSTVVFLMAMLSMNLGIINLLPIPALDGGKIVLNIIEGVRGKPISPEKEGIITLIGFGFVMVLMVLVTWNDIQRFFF

Substance	MIC (nM) of the bacteriocin against S. pneumoniae ds220 induced to express E. faecalis rseP (microtiter plate growth inhibition; non-induced cells and cells without rseP >4500 nM)	MIC (nM) of the bacteriocin against S. pneumoniae ds220 induced to express E. faecalis rseP (microtiter plate growth inhibition; non-induced cells and cells without rseP >5500 nM)
Enterocin EJ97 (peptide)	18 nM	
Enterocin K1 (peptide)		700 nM
